According to patent US20210070843A1:
Positions count from the first letter of the chain named.

B1: C05 (antibody, V domains shown)
VH: PVQLQESGGGLVQPGESLRLSCVGSGSSFGESTLSYYAVSWVRQAPGKGLEWLSIINAGGGDIDYADSVEGRFTISRDNSKETLYLQMTNLRVEDTGVYYCAKHMSMQQVVSAGWERADLVGDAFDVWGQGTMVTVSS
VL: DIQLTQSPSSLSASVGDRVTLTCQASQDIRKFLNWYQQKPGKGPKLLIYDASNLQRGVPSRFSGGGSGTDFTLIISSLQPEDVGTYYCQQYDGLPFTFGGGTKVEIKR
B2: P47 (antibody, V domains shown)
VH: EVQLVESGGGLVQPGGSLRLSCAASGFTIGNSGIHWVRQAPGKGLEWVASIWPSGGSTYYADSVKGRFTISADTSKNTAYLQMNSLRAEDTAVYYCARFGHIDGDIMDYWGQGTLVTVSS
VL: DIQMTQSPSSLSASVGDRVTITCRASQDVYYYVAWYQQKPGKAPKLLISGSSYLYSGVPSRFSGSGSGTDFTLTISSLQPEDFATYYCQQYYNWPLTFGQGTKVEIKR
B3: P48 (antibody, V domains shown)
VH: EVQLVESGGGLVQPGGSLRLSCAASGFTINSWGIHWVRQAPGKGLEWVAGIGPSWGYTSYADSVKGRFTISADTSKNTAYLQMNSLRAEDTAVYYCARFGDGDFDLMDYWGQGTLVTVSS
VL: B2 VL with Y30W, Y31S, G50Y, S51T, Y92F, L96I
B4: P28 (antibody, V domains shown)
VH: EVQLVESGGGLVQPGGSLRLSCAASGFTINNSGIHWVRQAPGKGLEWVASIWPSGGYTYYADSVKGRFTISADTSKNTAYLQMNSLRAEDTAVYYCARFNSSYSSGLMDYWGQGTLVTVSS
VL: B2 VL with Y30W, Y32S, S49Y, G50F, S51A, S52T, Y53G, Y92F, L96V
B5: S51 (antibody, V domains shown)
VH: EVQLVESGGGLVQPGGSLRLSCAASGFTIDDWGIHWVRQAPGKGLEWVAWIWPYGGFTSYADSVKGRFTISADTSKNTAYLQMNSLRAEDTAVYYCARFGFVDWNLMDYWGQGTLVTVSS
VL: B2 VL with Y30W, Y31G, G50Y, S51T, S52T, W94S, L96V
B6: S07 (antibody, V domains shown)
VH: B3 VH with W32S, G50S, Y57S, S59Y, D101I, F104I, L106V
VL: B2 VL with Y30W, Y31G, G50Y, S51A, Y53F, Y92F, L96V
B7: S40 (antibody, V domains shown)
VH: B2 VH with N31D, S32F, S50G, S54F, S57Y, G100V, H101N, I102W, I106Y
VL: B2 VL with Y30G, Y31F, G50W, W94Y
B8: P14 (antibody, V domains shown)
VH: B2 VH with N31D, S32F, S50G, S54F, S57Y, G100V, H101N, I102W, I106Y
VL: B2 VL with Y30G, Y31F, G50W, W94Y
B9: P10 (antibody, V domains shown)
VH: B2 VH with G30D, G33W, S54F, S57Y, H101N, I102V, D103F, G104D, D105W, I106Y
VL: DIQMTQSPSSLSASVGDRVTITCRASQDVNSNVAWYQQKPGKAPKLLIYWAGYLYSGVPSRFSGSGSGTDFTLTISSLQPEDFATYYCQQSSDFPITFGQGTKVEIKR
B10: S01 (antibody, V domains shown)
VH: B2 VH with G30N, S32Y, S57Y, Y59S, H101L, I102G, G104Y
VL: B2 VL with Y30W, Y31G, G50F, S51P, Y53S, N93D, W94G, L96V
B11: P25 (antibody, V domains shown)
VH: EVQLVESGGGLVQPGGSLRLSCAASGFTISNGGIHWVRQAPGKGLEWVAGIGPYGGYTYYADSVKGRFTISADTSKNTAYLQTNSLRAEDTAVYYCARFYGYSGIMDYWGQGTLVTVSS
VL: B2 VL with Y30W, Y31G, S52R, Y53S, W94Y, L96I

Assays:
[1] = target: full-length H5 A/Vietnam/1203/2004 HA expressed on 293T cells (influenza A virus A/Vietnam/1203/2004 (H5N1)); test: cell-based or functional assay
[2] = target: full-length H1 A/California/07/2009 HA expressed on 293T cells (influenza A virus A/California/07/2009 (H1N1)); test: cell-based or functional assay
[3] = target: H7 A/Anhui/1-BALF_RG17/2013 HA on H7N9 AH/13 pseudo virus (influenza A virus A/Anhui/1-BALF_RG17/2013 (H7N9)); test: cell-based or functional assay
[4] = target: cell surface-expressed H3N2 WN/05 HA trimer (influenza A virus A/Wisconsin/67/2005 (H3N2)); test: cell-based or functional assay
[5] = target: full-length H5 A/Vietnam/1203/2004 HA expressed on 293T cells (influenza A virus A/Vietnam/1203/2004 (H5N1)); test: flow cytometry, HA-expressing 293T
[6] = target: full-length H1 A/California/07/2009 HA expressed on 293T cells (influenza A virus A/California/07/2009 (H1N1)); test: flow cytometry, HA-expressing 293T
[7] = target: cell surface-expressed H3N2 WN/05 HA trimer (influenza A virus A/Wisconsin/67/2005 (H3N2)); test: flow cytometry, HA-expressing 293T

| Binder | IC50 of pseudo virus neutralization H5N1 VN/04 [1] | IC50 of pseudo virus neutralization H1N1 CA/09 [2] | IC50 of true virus neutralization H1N1 CA/09 [2] | IC50 of pseudo virus neutralization H7N9 AH/13 [3] | IC50 of pseudo virus neutralization H3N2 WN/05 [4] | max. MFI [5] | max. MFI [6] | EC50 [7] | max. MFI [7] | EC50 [6] | EC50 [5] |
| --- | --- | --- | --- | --- | --- | --- | --- | --- | --- | --- | --- |
| B1 | > 200 µg/mL | > 100 µg/mL | > 500 µg/mL | > 200 µg/mL | 0.0102 µg/mL | 547 MFI | 86 MFI | 0.13 µg/mL | 14600 MFI |  |  |
| B2 | > 200 µg/mL | > 100 µg/mL | > 500 µg/mL | > 200 µg/mL | > 20 µg/mL | 396 MFI | 10200 MFI |  | 175 MFI | 0.61 µg/mL |  |
| B3 | > 200 µg/mL | > 100 µg/mL | > 500 µg/mL | > 200 µg/mL | > 20 µg/mL | 474 MFI | 7860 MFI |  | 258 MFI | 2.4 µg/mL |  |
| B4 | > 200 µg/mL | > 100 µg/mL | > 500 µg/mL | > 200 µg/mL | > 20 µg/mL | 193 MFI | 168 MFI |  | 127 MFI |  |  |
| B5 | > 200 µg/mL | > 100 µg/mL | > 500 µg/mL | > 200 µg/mL | > 20 µg/mL | 452 MFI | 6290 MFI |  | 340 MFI | 0.754 µg/mL |  |
| B6 | > 200 µg/mL | > 100 µg/mL | > 500 µg/mL | > 200 µg/mL | > 20 µg/mL | 863 MFI | 10800 MFI | 3.71 µg/mL | 410 MFI | 1.61 µg/mL | 4.98 µg/mL |
| B7 | > 200 µg/mL | > 100 µg/mL | 436 µg/mL | > 200 µg/mL | > 20 µg/mL | 724 MFI | 8630 MFI |  | 109 MFI | 0.46 µg/mL | 2.85 µg/mL |
| B8 | > 200 µg/mL | > 100 µg/mL | 4390 µg/mL | > 200 µg/mL | > 20 µg/mL | 328 MFI | 8340 MFI |  | 154 MFI | 0.125 µg/mL |  |
| B9 | > 200 µg/mL | 0.465 µg/mL | > 500 µg/mL | > 200 µg/mL | > 20 µg/mL | 517 MFI | 9660 MFI |  | 117 MFI | 0.41 µg/mL |  |
| B10 | > 200 µg/mL | > 100 µg/mL | > 500 µg/mL | > 200 µg/mL | > 20 µg/mL | 306 MFI | 8430 MFI |  | 178 MFI | 0.384 µg/mL |  |
| B11 | > 200 µg/mL | > 100 µg/mL | > 500 µg/mL | > 200 µg/mL | > 20 µg/mL | 318 MFI | 2380 MFI |  | 152 MFI | 0.761 µg/mL |  |
